{
  "source": "patent US10973857B2",
  "about": "“Mesenchymal stem cell and use thereof for treatment of muscle injury and muscle-associated diseases” (EXOSTEM BIOTEC LTD., priority 2016, dated 2021)",
  "system": "MSCs",
  "assay": "Protocol 3 differentiation of MSCs to hybrid cells with growth factors",
  "type": "cell-based",
  "settings": "individually and in combination, as replacements or in combination with HGF and PDGF",
  "experimental": "A shortened third protocol (Protocol 3) was examined and was also found to produce MSC-muscle cell hybrid cells. The MSCs were cultured in normal MSC culturing conditions followed by supplementation of the media for 24 hours with 5-AZA. The cells were than grown in media supplemented with 2% horse serum and HGF and PDGF for 2 weeks. […] The following growth factors were tested both individually and in combination as replacements or in combination with HGF and PDGF: EGF, IGF1, PDGFAA, PDGFBB, and VEGF. […] Additionally, the protocol could be halted by moving the treated MSCs to non-supplemented MSC media. Hybrid cells that were produced could thus be halted from further differentiation.\nAll three protocols were also performed with MSCs that had first undergone myogenic priming as described above.",
  "data": [
    {"molecule": "PDGFBB: growth factor (protein, UniProt P01127 82-190, looked up, BB homodimer, growth factor) Platelet-derived growth …: SLGSLTIAEPAMIAECKTRTEVFEISRRLIDRTNANFLVWPPCVEVQRCSGCCNNRNVQCRPTQVQLRPVQVRKIEIVRKKPIFKKATVTLEDHLACKCETVAAARPVT", "values": [
      {"measurement": "production of hybrid cells from MSCs", "value": "found to produce hybrid cells"}
    ]},
    {"molecule": "EGF: growth factor (protein, UniProt P01133 23-1207, looked up, Pro-epidermal growth factor) Pro-epidermal growth factor: PQHWSCPEGTLAGNGNSTCVGPAPFLIFSHGNSIFRIDTEGTNYEQLVVDAGVSVIMDFHYNEKRIYWVDLERQLLQRVFLNGSRQERVCNIEKNVSGMAINWINEEVIWSNQQEGIITVTDMKGNNSHILLSALKYPANVAVDPVERFIFWSSEVAGSLYRADLDGVGVKALLETSEKITAVSLDVLDKRLFWIQYNREGSNSLICSCDYDGGSVHISKHPTQHNLFAMSLFGDRIFYSTWKMKTIWIANKHTGKDMVRINLHSSFVPLGELKVVHPLAQPKAEDDTWEPEQKLCKLRKGNCSSTVCGQDLQSHLCMCAEGYALSRDRKYCEDVNECAFWNHGCTLGCKNTPGSYYCTCPVGFVLLPDGKRCHQLVSCPRNVSECSHDCVLTSEGPLCFCPEGSVLERDGKTCSGCSSPDNGGCSQLCVPLSPVSWECDCFPGYDLQLDEKSCAASGPQPFLLFANSQDIRHMHFDGTDYGTLLSQQMGMVYALDHDPVENKIYFAHTALKWIERANMDGSQRERLIEEGVDVPEGLAVDWIGRRFYWTDRGKSLIGRSDLNGKRSKIITKENISQPRGIAVHPMAKRLFWTDTGINPRIESSSLQGLGRLVIASSDLIWPSGITIDFLTDKLYWCDAKQSVIEMANLDGSKRRRLTQNDVGHPFAVAVFEDYVWFSDWAMPSVMRVNKRTGKDRVRLQGSMLKPSSLVVVHPLAKPGADPCLYQNGGCEHICKKRLGTAWCSCREGFMKASDGKTCLALDGHQLLAGGEVDLKNQVTPLDILSKTRVSEDNITESQHMLVAEIMVSDQDDCAPVGCSMYARCISEGEDATCQCLKGFAGDGKLCSDIDECEMGVPVCPPASSKCINTEGGYVCRCSEGYQGDGIHCLDIDECQLGEHSCGENASCTNTEGGYTCMCAGRLSEPGLICPDSTPPPHLREDDHHYSVRNSDSECPLSHDGYCLHDGVCMYIEALDKYACNCVVGYIGERCQYRDLKWWELRHAGHGQQQKVIVVAVCVVVLVMLLLLSLWGAHYYRTQKLLSKNPKNPYEESSRDVRSRRPADTEDGMSSCPQPWFVVIKEHQDLKNGGQPVAGEDGQAADGSMQPTSWRQEPQLCGMGTEQGCWIPVSSDKGSCPQVMERSFHMPSYGTQTLEGGVEKPHSLLSANPLWQQRALDPPHQMELTQ", "values": [
      {"measurement": "production of hybrid cells from MSCs", "value": "found to produce hybrid cells"}
    ]}
  ]
}
